In the assay the target is GFP-tagged Pak1 (human) (UniProt Q13153). Kind of assay: cell-based or functional assay.
Sequence of GFP-tagged Pak1 (human) (Q13153 whole entry A26V/E503D): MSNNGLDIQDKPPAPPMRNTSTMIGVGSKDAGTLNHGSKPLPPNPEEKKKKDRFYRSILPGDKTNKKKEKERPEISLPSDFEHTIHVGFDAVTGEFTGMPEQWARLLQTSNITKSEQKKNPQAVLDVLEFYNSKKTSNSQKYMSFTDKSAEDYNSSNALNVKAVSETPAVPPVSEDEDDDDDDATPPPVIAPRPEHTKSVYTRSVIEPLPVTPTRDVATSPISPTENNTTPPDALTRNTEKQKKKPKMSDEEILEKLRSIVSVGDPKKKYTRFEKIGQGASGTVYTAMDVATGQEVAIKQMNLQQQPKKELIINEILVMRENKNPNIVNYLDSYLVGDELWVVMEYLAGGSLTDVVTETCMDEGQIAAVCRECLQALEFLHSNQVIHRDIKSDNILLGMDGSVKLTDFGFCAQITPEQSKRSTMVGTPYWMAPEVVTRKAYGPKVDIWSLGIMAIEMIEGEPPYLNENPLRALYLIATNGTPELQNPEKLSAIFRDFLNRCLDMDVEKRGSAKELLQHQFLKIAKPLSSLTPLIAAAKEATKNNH

For “RFP-DLC1-1-66 (from UniProt P61273 1-66)”, the vesicle formation (macropinocytosis), confocal microscopy of cotransfected SKBR3 cells (% of the transfected cells) was above 80.

For the origin of these results see patent publication US20040208880A1.
